Results: patent US20260234268A1, “ANTI-ASGR1 MONOCLONAL ANTIBODY AND USE THEREOF” (CHOLESGEN (SHANGHAI) CO., LTD., priority 2022, published 2026)

How the values were obtained:
[1] = test system: mice fed a high-fat, high-cholesterol, and cholate (HF/HC/BS) diet; assay: 4B9 and atorvastatin, alone or combined, in mice fed HF/HC/BS diet, 14 days (Example 2, FIG. 3)
Protocol: 8-week-old Asgr1 knockout mice and wild-type littermates are randomly divided into 8 groups as shown in the figure according to the genotype, with 6 mice per group. The mice are given free access to water and fed a high-fat, high-cholesterol, and cholate (HF/HC/BS) diet (60% fat, 1.25% cholesterol, and 0.5% cholate). […] After 14 days, the mice are fasted for 4 hours before being sacrificed. All data are presented as mean±SEM. Statistical significance is calculated using an unpaired two-tailed Student's t-test. *p<0.05, **p<0.01, ***p<0.001. (a) Western blotting analysis of liver samples; (b) total cholesterol in serum; (c) triglyceride in serum; (d) total cholesterol in liver; (e) triglyceride in liver; (f) concentration of cholesterol in bile; (g) total cholesterol in bile; (h) concentration of bile acid in bile; (i) total bile acid in bile; (j) total cholesterol in feces; (k) body weight; (l) daily food intake; (m) ratio of liver weight to body weight; (n) blood glucose; (o) alanine transaminase in serum; (p) aspartate transaminase in serum; (q-r) real-time quantitative PCR analysis of genes related to cholesterol efflux, cholesterol synthesis and absorption, lipid synthesis, and bile acid synthesis in the liver of mice, and genes in other pathways, with cyclophilin as an internal reference; (s) hematoxylin-eosin staining of liver sections; (t) oil red O staining of liver sections.
In the experiment, wild-type littermates were used as a control. All mice were housed in an SPF (specific pathogen-free) facility and kept on a 12-hour light/12-hour dark cycle. 8-week-old male or female mice were fed a high-fat, high-cholesterol, and cholate diet (Research Diets, D12109C) as required by the experimental protocols. For treatments involving antibody neutralization or the combination of antibodies with statins or Ezetimibe, the mice were intraperitoneally injected with antibodies or intragastrically administered with drugs at specified doses. All animals were fasted for 4 hours before being sacrificed.
The collected cells or tissues were lysed in RIPA lysis buffer supplemented with protease and phosphatase inhibitors. The RIPA lysis buffer contained 50 mM Tris-HCl (pH=8.0), 150 mM NaCl, 2 mM MgCl2, 1.5% NP-40, 0.1% SDS, and 0.5% sodium deoxycholate. The protease inhibitor contained 10 μM MG-132, 10 μg/mL leupeptin, 1 mM PMSF, 5 μg/mL pepstatin, 25 μg/mL ALLN, and 1 mM DTT. The protein concentration of the lysate was determined using a BCA method (Thermo Fisher Scientific). The protein samples were incubated with membrane solubilization buffer (62.5 mM Tris-HCl (pH=6.8), 15% SDS, 8 M urea, 10% glycerol, and 100 mM DTT) and 4× loading buffer (150 mM Tris-HCl (pH=6.8), 12% SDS, 30% glycerol, 6% β-mercaptoethanol, and 0.02% bromophenol blue) at 37° C. for 30 minutes. The protein samples were separated by SDS-PAGE and transferred to a PVDF membrane, which was blocked in TBST, i.e., TBS containing 0.075% Tween 20 and 5% skim milk (3% BSA for phosphorylation experiments) for 1 hour. The membrane was incubated overnight at 4° C. with a specified primary antibody, and washed three times with TBST. Finally, Pierce ECL Plus Western blotting substrate (Thermo Fisher Scientific) was used for detection.
Blood was collected from the orbital sinus to obtain serum for the measurement of total cholesterol and triglyceride.

[2] = test system: mice fed a high-fat, high-cholesterol, and cholate (HF/HC/BS) diet; assay: 4B9 in mice fed HF/HC/BS diet, 14 days (Example 1, FIG. 2); type: in vivo, mouse
From the text: (§1) All data are presented as mean±SEM.
We further investigated whether 4B9 was able to completely simulate the improvement of Asgr1 deletion on high-fat, high-cholesterol conditions.

[3] = test system: mice fed a high-fat, high-cholesterol, and cholate (HF/HC/BS) diet; assay: 4B9 and Ezetimibe, alone or combined, in mice fed HF/HC/BS diet (Example 3, FIG. 4); type: in vivo, mouse
Protocol: as §1
We then devised an experiment as in FIG. 4 to verify the hypothesis. Mice were randomly divided into 8 groups according to the genotype (n=6) and fed an HF/HC/BS diet. They were intragastrically administered with EZ at 10 mg/kg per day and were intraperitoneally injected with 4B9 at 10 mg/kg every other day. The mice were sacrificed on day 7 to collect their tissues.

LXRα [4] = assay: Western blotting of LXRα in Huh7 cells incubated with purified neutralizing antibody; type: cell-based, human; details: 72 hours, Western blotting (FIG. 1c)
From the text: (§2) (a) Steps for preparing ASGR1 monoclonal neutralizing antibody. Purified ASGR1 protein is used as the antigen to immunize rabbits, and after the first round of screening, four B-cell monoclonal antibodies are selected as candidates. The coding region of the variable region of the antibody is then sequenced and cloned into an antibody expression vector, which is transfected into mammalian cells. The efficiency of transfection is confirmed by Western blotting and real-time quantitative PCR. Finally, the rabbit-derived Fc fragment is replaced with a murine Fc fragment. The neutralizing antibody 4B9 is selected for large-scale production and used in subsequent experiments. (b) ASGR1 protein purified from HEK293T cells is stained with Coomassie Brilliant Blue. (c) Huh7 cells are incubated with purified neutralizing antibody for 72 hours, followed by Western blotting analysis of the protein expression of LXRα. (d) Primary hepatocytes are isolated from 8-week-old wild-type C57B/L6 mice. […] The primary hepatocytes are incubated with ASGR1 neutralizing antibody 4B9 for 72 hours, after which cells are collected, total RNA is extracted from the cells, and target genes of LXR are analyzed by real-time quantitative PCR. […]

LXRα [5] = assay: Western blotting of LXRα in primary hepatocytes incubated with monoclonal neutralizing antibodies; type: cell-based, mouse; details: primary hepatocytes of wild-type C57B/L6 mice, various concentrations, 72 hours, Western blotting (FIG. 1d)
target genes of LXR = assay: Real-time quantitative PCR of target genes of LXR in primary hepatocytes incubated with 4B9; type: cell-based; details: primary mouse hepatocytes, 72 hours, real-time quantitative PCR (FIG. 1e)
From the text: as §2

[6] = wild-type mice, HF/HC/BS diet, 4B9 10 mg/kg/day i.p. every other day, 14 days, Western blotting (FIG. 2a)
[7] = sacrificed on day 7, 4B9 10 mg/kg i.p. every other day, EZ 10 mg/kg per day intragastric (FIGS. 4a, 4p-q)

B1: 4B9: ASGR1 monoclonal neutralizing antibody from immunized rabbits, rabbit Fc replaced with mouse Fc; VL SEQ ID NO: 28, VH SEQ ID NO: 29 (antibody, listed as Oryctolagus cuniculus, V domains shown)
VH: QSLEESGGDLVKPGATMTLTCKASGFSFSGSLWICWVRQAPGKGLEWIACIYVGSSGSTYYASWAKGRFTISTTSSTTVTLQMTSLTAADTATYFCARRYTDAYGGYPAGSFVFKLWGPGTLVTVSS
VL: QVLTQTPSPVSAAVGGTVTINCQASQSVYNNKNLGWYQQKPGQPPKLLIYYASDLASGVPSRFKGSGSGKQFTLTISDVQCDDAATYYCQGEFSCSSADCCAFGGGTEVVVK
modifications: mouse Fc
cholesterol synthesis or absorption-related genes and their proteins in liver ([1]; 4B9 10 mg/kg/day i.p. every other day (FIGS. 3a, 3q-r)): without affecting the levels | total cholesterol in serum ([1]; 4B9 10 mg/kg/day i.p. every other day, atorvastatin 30 mg/kg/day intragastric daily (FIG. 3b)): effectively reduce | triglyceride in serum ([1]; 4B9 10 mg/kg/day i.p. every other day, atorvastatin 30 mg/kg/day intragastric daily (FIG. 3c)): effectively reduce | triglyceride in liver ([1]; 4B9 10 mg/kg/day i.p. every other day, atorvastatin 30 mg/kg/day intragastric daily (FIG. 3e)): effectively reduce | total amount of total cholesterol in bile ([1]; 4B9 10 mg/kg/day i.p. every other day, atorvastatin 30 mg/kg/day intragastric daily (FIG. 3g)): increased | total amount of total bile acid in bile ([1]; 4B9 10 mg/kg/day i.p. every other day, atorvastatin 30 mg/kg/day intragastric daily (FIG. 3i)): increased | total cholesterol in feces ([1]; 4B9 10 mg/kg/day i.p. every other day, atorvastatin 30 mg/kg/day intragastric daily (FIG. 3j)): significantly increased | total cholesterol in liver ([1]; 4B9 10 mg/kg/day i.p. every other day, atorvastatin 30 mg/kg/day intragastric daily (FIG. 3d)): effectively reduce | lipid synthesis-related genes and their proteins (SREBP1, FASN) in liver ([1]; 4B9 10 mg/kg/day i.p. every other day, atorvastatin 30 mg/kg/day intragastric daily (FIGS. 3a, 3q-r)): inhibited the levels | all parameters in Asgr1 knockout mice with or without injection of 4B9 ([2]; Asgr1 knockout mice, HF/HC/BS diet, 4B9 10 mg/kg/day i.p. every other day, 14 days (FIG. 2a)): remained unchanged | real-time quantitative PCR of liver genes (cholesterol efflux, cholesterol synthesis and absorption, lipid synthesis, bile acid metabolism) ([2]; HF/HC/BS diet, 4B9 10 mg/kg/day i.p. every other day, 14 days (FIG. 2b)): consistent with protein-level changes | body weight ([2]; HF/HC/BS diet, 4B9 10 mg/kg/day i.p. every other day, 14 days (FIG. 2n)): no significant changes | daily food intake ([2]; HF/HC/BS diet, 4B9 10 mg/kg/day i.p. every other day, 14 days (FIG. 2o)): no significant changes | ratio of liver weight to body weight ([2]; HF/HC/BS diet, 4B9 10 mg/kg/day i.p. every other day, 14 days (FIG. 2p)): no significant changes | blood glucose ([2]; HF/HC/BS diet, 4B9 10 mg/kg/day i.p. every other day, 14 days (FIG. 2q)): no significant changes | ALT (alanine transaminase in serum) ([2]; HF/HC/BS diet, 4B9 10 mg/kg/day i.p. every other day, 14 days (FIG. 2r)): no significant changes | AST (aspartate transaminase in serum) ([2]; HF/HC/BS diet, 4B9 10 mg/kg/day i.p. every other day, 14 days (FIG. 2s)): no significant changes | total cholesterol in serum ([2]; HF/HC/BS diet, 4B9 10 mg/kg/day i.p. every other day, 14 days, vs control group (FIG. 2c)): significant decrease | total cholesterol in liver ([2]; HF/HC/BS diet, 4B9 10 mg/kg/day i.p. every other day, 14 days, vs control group (FIG. 2e)): significant decrease | triglyceride in liver ([2]; HF/HC/BS diet, 4B9 10 mg/kg/day i.p. every other day, 14 days, vs control group (FIG. 2f)): significant decrease | total amount of total cholesterol in bile ([2]; HF/HC/BS diet, 4B9 10 mg/kg/day i.p. every other day, 14 days, vs control group (FIG. 2i)): significant increase | total cholesterol in feces ([2]; HF/HC/BS diet, 4B9 10 mg/kg/day i.p. every other day, 14 days, vs control group (FIG. 2k)): significant increase | concentration of total bile acid in bile ([2]; HF/HC/BS diet, 4B9 10 mg/kg/day i.p. every other day, 14 days, vs control group (FIG. 2l)): significant increase | total amount of total bile acid in bile ([2]; HF/HC/BS diet, 4B9 10 mg/kg/day i.p. every other day, 14 days, vs control group (FIG. 2m)): significant increase | concentration of total cholesterol in bile ([2]; HF/HC/BS diet, 4B9 10 mg/kg/day i.p. every other day, 14 days, vs control group (FIG. 2h)): significant increase | triglyceride in serum ([2]; HF/HC/BS diet, 4B9 10 mg/kg/day i.p. every other day, 14 days, vs control group (FIG. 2d)): significant decrease | volume of gallbladder ([2]; HF/HC/BS diet, 4B9 10 mg/kg/day i.p. every other day, 14 days, vs control group (FIGS. 2g, j)): significant increase | overall lipid-lowering effect ([2]; summary of Example 1, high-fat, high-cholesterol diet): very significant lipid-lowering effect | BARD1 in liver [2, 6]: significantly reduced | LDLR in liver [2, 6]: remained unchanged | cholesterol efflux-related proteins (LXR, ABCG8, ABCA1, CYP7A1) in liver [2, 6]: significantly increased | lipid synthesis-related proteins SREBP1 and FASN in liver [2, 6]: significantly reduced | p-ACC in liver [2, 6]: significantly up-regulated | body weight ([3]; 8 groups of mice, sacrificed on day 7, 4B9 10 mg/kg i.p. every other day, EZ 10 mg/kg per day intragastric (FIG. 4j)): No significant differences | daily food intake ([3]; 8 groups of mice, sacrificed on day 7, 4B9 10 mg/kg i.p. every other day, EZ 10 mg/kg per day intragastric (FIG. 4k)): No significant differences | ratio of liver weight to body weight ([3]; 8 groups of mice, sacrificed on day 7, 4B9 10 mg/kg i.p. every other day, EZ 10 mg/kg per day intragastric (FIG. 4l)): No significant differences | blood glucose ([3]; 8 groups of mice, sacrificed on day 7, 4B9 10 mg/kg i.p. every other day, EZ 10 mg/kg per day intragastric (FIG. 4m)): No significant differences | ALT ([3]; 8 groups of mice, sacrificed on day 7, 4B9 10 mg/kg i.p. every other day, EZ 10 mg/kg per day intragastric (FIG. 4n)): No significant differences | AST ([3]; 8 groups of mice, sacrificed on day 7, 4B9 10 mg/kg i.p. every other day, EZ 10 mg/kg per day intragastric (FIG. 4o)): No significant differences | cholesterol synthesis or absorption-related genes and their proteins in liver ([3]; sacrificed on day 7, 4B9 10 mg/kg i.p. every other day (FIGS. 4a, 4p-q)): without affecting the levels | total cholesterol in serum ([3]; sacrificed on day 7, 4B9 10 mg/kg i.p. every other day, EZ 10 mg/kg per day intragastric (FIG. 4b)): effectively reduce | triglyceride in serum ([3]; sacrificed on day 7, 4B9 10 mg/kg i.p. every other day, EZ 10 mg/kg per day intragastric (FIG. 4c)): effectively reduce | triglyceride in liver ([3]; sacrificed on day 7, 4B9 10 mg/kg i.p. every other day, EZ 10 mg/kg per day intragastric (FIG. 4e)): effectively reduce | total amount of total cholesterol in bile ([3]; sacrificed on day 7, 4B9 10 mg/kg i.p. every other day, EZ 10 mg/kg per day intragastric (FIG. 4g)): increased | total amount of total bile acid in bile ([3]; sacrificed on day 7, 4B9 10 mg/kg i.p. every other day, EZ 10 mg/kg per day intragastric (FIG. 4i)): increased | total cholesterol in liver ([3]; sacrificed on day 7, 4B9 10 mg/kg i.p. every other day, EZ 10 mg/kg per day intragastric (FIG. 4d)): effectively reduce | cholesterol efflux-related genes and their proteins (LXRs, ABCG8, ABCA1, CYP7A1) in liver [3, 7]: increased levels | lipid synthesis-related genes and their proteins (SREBP1, FASN) in liver [3, 7]: inhibited the levels | protein stability of LXRα (LXRα [4]): significantly increase | protein stability of LXRα (LXRα [5]): significantly increase | cholesterol efflux-related genes (target genes of LXR) (target genes of LXR): significantly up-regulated
